7 molecules from patent US20240287208A1 (CONCEPT TO MEDICINE BIOTECH, published 2024) can be followed below.

Assay [1] has as its target T1, human CD40-His protein (human, UniProt P25942 21-193).
T1 construct: His-tagged recombinant protein; also called human CD40-his tag; recombinant CD40 protein
The experiment in a line: BLI Octet RED96e, antibody captured on AHC, CD40-His as analyte. The procedure: (§1) The binding of the humanized 42p155 and 2p442 antibodies to recombinant human CD40 protein (human CD40-his tag) was tested by Biacore and Octet, respectively, using a capture method.
For humanized 2p442 monoclonal antibodies, 2p442z8, 2p442z9 and 2p442z10 were captured using AHC biosensor. A serial dilution of human CD40-his tag protein was incubated with captured antibody for 5 mins. The antigen was allowed to dissociate for 10 min. All the experiments were carried out on an Octet RED96e. Data analysis was carried out using Octet Analysis Studio 12.2 software.

Assay [2] addresses T2, human CD40 on the cell surface (human, UniProt P25942 21-277).
T2 construct: whole, on cells; also called cell surface CD40; Jurkat-CD40
In words: FACS, Jurkat cells overexpressing human CD40, PE anti-human IgG, MFI. On the procedure:
(§2) To evaluate the binding affinity of humanized 2p442 monoclonal antibodies to cell surface CD40, 2p442z8, 2p442z9, 2p442z10 and parental 2p442 were tested in Jurkat cell lines that overexpressed CD40 by FACS. A total number of 1×10⁵ Jurkat-CD40 cells in each well were incubated with 3-fold serially diluted antibodies starting from 100 nM for 30 minutes at 4° C. in FACS buffer. After wash by FACS buffer, PE conjugated-anti-human IgG antibody was added to each well and incubated at 4° C. for 30 minutes. After wash, MFI of PE was evaluated by MACSQuant Analyzer 16.

For assay [3], the target named is T2, human CD40 on the cell surface. Described as above. The procedure: as §2, with “5T4-CD40 bispecific” for “humanized 2p442 monoclonal”, “bispecific antibodies with formats of b 1 (42p155z2), b12 (42p155z2), b13 (42p155z2), b16 (42p155z2), b17 (42p155z2)” for “2p442z8, 2p442z9, 2p442z10”, “b18 (2p1130)” for “parental 2p442”, “5-fold” for “3-fold”
This is another data set of the same source.

Assay [4] has as its target T1, human CD40-His protein. The experiment in a line: SPR Biacore T200, antibody captured on Protein A, CD40-His as analyte. On the procedure: as §1
For humanized 42p155 monoclonal antibodies, 42p155z2 and 42p155z3 were captured using Protein A chip. A serial dilution of human CD40-his tag protein was injected over captured antibody for 3 mins at a flow rate of 10 μl/min. The antigen was allowed to dissociate for 6 min. All the experiments were carried out on a Biacore T200. Data analysis was carried out using Biacore T200 evaluation software.
For orientation: SPR reads the build-up and loss of mass on a sensor chip optically.

T1 sequence (P25942 21-193 limits assumed): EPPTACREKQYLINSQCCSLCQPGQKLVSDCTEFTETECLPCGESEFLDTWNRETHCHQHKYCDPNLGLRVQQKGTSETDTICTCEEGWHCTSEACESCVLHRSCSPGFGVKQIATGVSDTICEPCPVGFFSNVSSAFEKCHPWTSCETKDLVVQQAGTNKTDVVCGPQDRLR
T2 sequence (P25942 21-277): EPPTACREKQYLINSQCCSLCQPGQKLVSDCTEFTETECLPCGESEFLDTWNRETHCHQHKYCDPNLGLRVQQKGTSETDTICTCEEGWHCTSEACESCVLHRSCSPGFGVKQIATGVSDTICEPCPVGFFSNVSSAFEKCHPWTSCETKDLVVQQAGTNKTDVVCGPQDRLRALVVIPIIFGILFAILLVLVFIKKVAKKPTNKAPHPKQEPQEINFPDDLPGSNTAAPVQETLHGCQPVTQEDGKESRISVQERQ

B1: 2p442z8 humanized monoclonal antibody (antibody, V domains shown)
VH: QVQLVESGGGLVKPGGSLRLSCAASGFTFDYFAIGWFRQAPGKGREGVSCISGGGSTRYADSVKGRFTISRDNAKNSVYLQMNSLRPEDTAVYYCARARLLSRNCVPRDSGSWGQGTLVTVSS
notes: Humanized monoclonal antibody captured on AHC biosensor; also called VHHz8
With B1, in the assay with human CD40-His protein [1], binding was put at a Kd of 56.7 nM, the dissociation rate constant (koff) (usually the first-order rate constant of dissociation) is 0.0119 s⁻¹ and the kon (commonly the rate constant with which the complex forms) was found to be 210000 M⁻¹ s⁻¹. Further, the EC50 (read off the curve) (usually the concentration needed to bring the measured effect to its halfway point) in assay [2] is roughly 0.2 nM.

B2: 2p442z9 humanized monoclonal antibody (antibody, V domains shown)
VH: QVQLVESGGGLVKPGGSLRLSCAASGFTFDYFAIGWFRQAPGKELEGVSCISGGGSTRYADSVKGRFTISRDNAKNSVYLQMNSLRPEDTAVYYCARARLLSRNCVPRDSGSWGQGTLVTVSS
notes: Humanized monoclonal antibody captured on AHC biosensor; also called VHHz9
On to B2, for which, in the assay with human CD40-His protein [1], binding was put at a Kd of 34.8 nM, the koff came out at 0.0125 s⁻¹ and the association rate constant (kon) was determined as 357000 M⁻¹ s⁻¹. Moreover, the “EC50 (read off the curve)” value in assay [2] is roughly 0.2 nM.

B3: 2p442z10 humanized monoclonal antibody (antibody, V domains shown)
VH: QVQLVESGGGLVKPGGSLRLSCAASGFTFDYFAIGWFRQAPGKELEGVSCISGGGSTRYADSVKGRFTISRDNAKNSVYLQMNSLRPEDTAVYYCAAARLLSRNCVPRDSGSWGQGTLVTVSS
notes: Humanized monoclonal antibody captured on AHC biosensor; also called VHHz10
Turning to B3, in the assay with human CD40-His protein [1], the Kd – broadly, the concentration at which binding is half-saturated – is 69.6 nM; the koff is 0.0337 s⁻¹; the kon was determined as 485000 M⁻¹ s⁻¹. Also, the “EC50 (read off the curve)” value in assay [2] is roughly 0.2 nM.

B4: b12 (42p155z2) anti-5T4/CD40 bispecific antibody (bispecific antibody, human IgG1, kappa, N297A)
heavy 1: EVQLQQSGPELVKPGASVKISCKASGYAFSSSWMNWVKQRPGKGLEWIGRIYREDGHTNYNGKFKGKATLTADKSSTTAYMQLTSLTSEDSAVYFCANGGAMDYWGQGTSVTVSSASTKGPSVFPLAPSSKSTSGGTAALGCLVKDYFPEPVTVSWNSGALTSGVHTFPAVLQSSGLYSLSSVVTVPSSSLGTQTYICNVNHKPSNTKVDKKVEPKSCDKTHTCPPCPAPELLGGPSVFLFPPKPKDTLMISRTPEVTCVVVDVSHEDPEVKFNWYVDGVEVHNAKTKPREEQYASTYRVVSVLTVLHQDWLNGKEYKCKVSNKALPAPIEKTISKAKGQPREPQVCTLPPSREEMTKNQVSLSCAVKGFYPSDIAVEWESNGQPENNYKTTPPVLDSDGSFFLVSKLTVDKSRWQQGNVFSCSVMHEALHNHYTQKSLSLSPGK
light: DIQMTQSTSSLSASLGDRVTISCRASQDISNYLNWYQQKPDGTVKLLIYYTSRLHSGVPSRFSGSGSGTDYSLTISNLEQEDIATYFCQQDNTLPWTFGGGTKLEIKRTVAAPSVFIFPPSDEQLKSGTASVVCLLNNFYPREAKVQWKVDNALQSGNSQESVTEQDSKDSTYSLSSTLTLSKADYEKHKVYACEVTHQGLSSPVTKSFNRGEC
heavy 2: not shown
notes: also called 1+1 b12 format
B4: the binding result in assay [3] is on record as “binds”.

B5: b17 (42p155z2) anti-5T4/CD40 bispecific antibody (bispecific antibody, human IgG1, kappa, N297A)
heavy 1: EVQLQQSGPELVKPGASVKISCKASGYAFSSSWMNWVKQRPGKGLEWIGRIYREDGHTNYNGKFKGKATLTADKSSTTAYMQLTSLTSEDSAVYFCANGGAMDYWGQGTSVTVSSASTKGPSVFPLAPSSKSTSGGTAALGCLVKDYFPEPVTVSWNSGALTSGVHTFPAVLQSSGLYSLSSVVTVPSSSLGTQTYICNVNHKPSNTKVDKKVEPKSCDKTHTCPPCPAPELLGGPSVFLFPPKPKDTLMISRTPEVTCVVVDVSHEDPEVKFNWYVDGVEVHNAKTKPREEQYASTYRVVSVLTVLHQDWLNGKEYKCKVSNKALPAPIEKTISKAKGQPREPQVCTLPPSREEMTKNQVSLSCAVKGFYPSDIAVEWESNGQPENNYKTTPPVLDSDGSFFLVSKLTVDKSRWQQGNVFSCSVMHEALHNHYTQKSLSLSPGKGGGGSGGGGSGGGGSGGGGSEVQLVESGGGLVQPGGSLRLSCAASGFAFRSYTMSWVRQAPGKGLEWVSTITHNGAITTYAESAQGRFTISRDNSKNTLYLQMNSLRAEDTAVYYCAQGGGSNYYRESWGQGTQVTVSS
light: DIQMTQSTSSLSASLGDRVTISCRASQDISNYLNWYQQKPDGTVKLLIYYTSRLHSGVPSRFSGSGSGTDYSLTISNLEQEDIATYFCQQDNTLPWTFGGGTKLEIKRTVAAPSVFIFPPSDEQLKSGTASVVCLLNNFYPREAKVQWKVDNALQSGNSQESVTEQDSKDSTYSLSSTLTLSKADYEKHKVYACEVTHQGLSSPVTKSFNRGEC
heavy 2: not shown
notes: also called 1+2 b17 format
On to B5, for which the binding result in assay [3] is on record as “binds”.

B6: 42p155z2 humanized monoclonal antibody (antibody, V domains shown)
VH: EVQLVESGGGLVQPGGSLRLSCAASGFAFRSYTMSWVRQAPGKGLEWVSTITHNGAITTYAESAQGRFTISRDNSKNTLYLQMNSLRAEDTAVYYCAQGGGSNYYRESWGQGTQVTVSS
notes: Humanized monoclonal antibody captured on Protein A; also called VHHz2
In the assay with human CD40-His protein [4], B6 gave a dissociation constant (Kd) of 186 nM, a koff of 0.0368 s⁻¹ and a kon of 198000 M⁻¹ s⁻¹.

B7: 42p155z3 humanized monoclonal antibody (antibody, V domains shown)
VH: EVQLVESGGGLVQPGGSLRLSCAASGFAFRSYTMSWVRQAPGKGLEWVSTITHNGAITTYAESAQGRFTISRDNSKNTLYLQMNSLRPEDTAVYYCAQGGGSNYYRESWGQGTQVTVSS
notes: Humanized monoclonal antibody captured on Protein A; also called VHHz3
In the assay with human CD40-His protein [4], B7 came in with a Kd of 193 nM, a koff of 0.0555 s⁻¹ and an on-rate (kon) of 287000 M⁻¹ s⁻¹.
